Data published in article PMC5176304 (PLoS ONE, 2016).

Tests used:
Assay in all cases: SEC-MALS; size exclusion chromatography with multi-angle light scattering of Ni-purified uricases dialyzed into PBS; noncovalent molecular weight compared with the theoretical tetramer
[1] = target: Deinococcus geothermalis uricase (Deinococcus geothermalis)
[2] = target: Deinococcus radiodurans uricase (Deinococcus radiodurans)
[3] = target: Granulicella tundricola uricase (Granulicella tundricola)
[4] = target: Kyrpidia tusciae uricase (Kyrpidia tusciae)
[5] = target: Solibacter usitatus uricase (Solibacter usitatus)
[6] = target: Terriglobus saanensis uricase (Terriglobus saanensis)
[7] = target: the molecule itself

## Deinococcus geothermalis uricase (enzyme)
[1]
  stoichiometry N: 4

## Deinococcus radiodurans uricase (enzyme)
[2]
  stoichiometry N: 4

## Granulicella tundricola uricase (enzyme)
[3]
  stoichiometry N: 4

## Kyrpidia tusciae uricase (enzyme)
[4]
  stoichiometry N: 4

## Solibacter usitatus uricase (enzyme)
[5]
  stoichiometry N: 4

## Terriglobus saanensis uricase (enzyme)
[6]
  stoichiometry N: 4

B1: Arthrobacter globiformis uricase (C-terminally truncated by 11 amino acids, N-terminal His tag) (enzyme, UniProt D0VWQ1 1-291, looked up)
chain: MTATAETSTGTKVVLGQNQYGKAEVRLVKVTRNTARHEIQDLNVTSQLRGDFEAAHTAGDNAHVVATDTQKNTVYAFARDGFATTEEFLLRLGKHFTEGFDWVTGGRWAAQQFFWDRINDHDHAFSRNKSEVRTAVLEISGSEQAIVAGIEGLTVLKSTGSEFHGFPRDKYTTLQETTDRILATDVSARWRYNTVEVDFDAVYASVRGLLLKAFAETHSLALQQTMYEMGRAVIETHPEIDEIKMSLPNKHHFLVDLQPFGQDNPNEVFYAADRPYGLIEATIQREGSRAD
notes: Synthetic gene in a modified pET15b-based vector; also called RGD-containing Arthrobacter globiformis uricase; uricase containing RGD
[7]
  stoichiometry N: 4
